Test results from the supplement of paper PMC5998384.

Legend:
HeLa Kyoto [1] = experiment: melting temperature (median over replicates), in situ; higher = more thermally stable
HeLa Kyoto [2] = experiment: solubility in G1/S (NP-40 vs SDS abundance) (log2 ratio); higher = more soluble; conditions: cell cycle stage: G1/S
HeLa Kyoto [3] = experiment: thermal stability score vs G1/S (z-score of summed log2 fold changes over temperatures); higher = more thermally stable than in G1/S
HeLa Kyoto [4] = experiment: solubility change mitosis vs G1/S (difference of NP-40 vs SDS log2 ratios) (log2 ratio difference); higher = more soluble in mitosis
[5] = cell cycle stage: early G1 (4.5 h after nocodazole release)
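Throughout, for melting temperature (median over replicates), in situ: HeLa Kyoto cells synchronized by double thymidine or nocodazole block, proteins quantified by TMT10plex mass spectrometry, three independent biological replicates.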
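Throughout, for solubility change mitosis vs G1/S (difference of NP-40 vs SDS log2 ratios): synchronized HeLa Kyoto cells (double thymidine block for G1/S, nocodazole release for mitosis), protein amounts in NP-40 versus SDS lysates quantified by mass spectrometry, three biological replicates.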
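Throughout, for solubility in G1/S (NP-40 vs SDS abundance): HeLa Kyoto cells arrested at G1/S by double thymidine block, proteins quantified by TMT10plex mass spectrometry in mild NP-40 versus SDS extracts, three biological replicates.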
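Throughout, for thermal stability score vs G1/S (z-score of summed log2 fold changes over temperatures): synchronized HeLa Kyoto cells, proteins quantified by TMT10plex mass spectrometry, three biological replicates, mitosis taken 0.5 h after nocodazole release, G1/S directly after double thymidine block.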

Sequence	melting temperature (HeLa Kyoto [1]; cell cycle stage: G1/S)	melting temperature (HeLa Kyoto [1]; cell cycle stage: mitosis)	solubility in G1/S (log2) (HeLa Kyoto [2])	thermal stability score (HeLa Kyoto [3]; [5])	thermal stability score (HeLa Kyoto [3]; cell cycle stage: mitosis)	solubility change mitosis (log2) (HeLa Kyoto [4])
MATSMAAASGRFESAKSIEERKEQTRNARAEVLRQAKANFEKEERRKELKRLRGEDTWMLPDVNERIEQFSQEHSVKKKKKKDKHSKKAKKEKKKKSKKQKYEKNNESSDSSSSSEDEWVEAVPSQTPDKEKAWKVKDEKSGKDDTQIIKRDEWMTVDFMSVKTVSSSSLKAEKETMRKIEQEKNQALEQSKLMERELNPYWKDGGTGLPPEDCSVSSITKVSVVEDGGLSWLRKSYLRMKEQAEKQSRNFEDIVAERYGSMEIFQSKLEDAEKAASTKEDYRRERWRKPTYSDKAQNCQESRESDLVKYGNSSRDRYATTDTAKNSNNEKFIGDEKDKRPGSLETCRRESNPRQNQEFSFGNLRAKFLRPSDDEELSFHSKGRKFEPLSSSSALVAQGSLCSGFRKPTKNSEERLTSWSRSDGRGDKKHSNQKPSETSTDEHQHVPEDPREKSQDEVLRDDPPKKEHLRDTKSTFAGSPERESIHILSVDEKNKLGAKIIKAEMMGNMELAEQLKVQLEKANKFKETITQIPKKSGVENEDQQEVILVRTDQSGRVWPVNTPGKSLESQGGRRKRQMVSTHEERERVRYFHDDDNLSLNDLVKNEKMGTAENQNKLFMRMASKFMGKTDGDYYTLDDMFVSKAAERERLGEEEENQRKKAIAEHRSLAAQMEKCLYCFDSSQFPKHLIVAIGVKVYLCLPNVRSLTEGHCLIVPLQHHRAATLLDEDIWEEIQMFRKSLVKMFEDKGLDCIFLETNMSMKKQYHMVYECIPLPKEVGDMAPIYFKKAIMESDEEWSMNKKLIDLSSKDIRKSVPRGLPYFSVDFGLHGGFAHVIEDQHKFPHYFGKEIIGGMLDIEPRLWRKGIRESFEDQRKKALQFAQWWKPYDFTKSKNY [CWF19L2]	49.4 °C	49.2 °C	-0.379	0.398	2.26	0.121
MATSVGHRCLGLLHGVAPWRSSLHPCEITALSQSLQPLRKLPFRAFRTDARKIHTAPARTMFLLRPLPILLVTGGGYAGYRQYEKYRERELEKLGLEIPPKLAGHWEVALYKSVPTRLLSRAWGRLNQVELPHWLRRPVYSLYIWTFGVNMKEAAVEDLHHYRNLSEFFRRKLKPQARPVCGLHSVISPSDGRILNFGQVKNCEVEQVKGVTYSLESFLGPRMCTEDLPFPPAASCDSFKNQLVTREGNELYHCVIYLAPGDYHCFHSPTDWTVSHRRHFPGSLMSVNPGMARWIKELFCHNERVVLTGDWKHGFFSLTAVGATNVGSIRIYFDRDLHTNSPRHSKGSYNDFSFVTHTNREGVPMRKGEHLGEFNLGSTIVLIFEAPKDFNFQLKTGQKIRFGEALGSL [PISD]	51.7 °C	50.9 °C	-0.127	-1.35	-0.739	-0.00593
MATTATCTRFTDDYQLFEELGKGAFSVVRRCVKKTSTQEYAAKIINTKKLSARDHQKLEREARICRLLKHPNIVRLHDSISEEGFHYLVFDLVTGGELFEDIVAREYYSEADASHCIHQILESVNHIHQHDIVHRDLKPENLLLASKCKGAAVKLADFGLAIEVQGEQQAWFGFAGTPGYLSPEVLRKDPYGKPVDIWACGVILYILLVGYPPFWDEDQHKLYQQIKAGAYDFPSPEWDTVTPEAKNLINQMLTINPAKRITADQALKHPWVCQRSTVASMMHRQETVECLRKFNARRKLKGAILTTMLVSRNFSAAKSLLNKKSDGGVKKRKSSSSVHLMPQSNNKNSLVSPAQEPAPLQTAMEPQTTVVHNATDGIKGSTESCNTTTEDEDLKGRVPEGRSSRDRTAPSAGMQPQPSLCSSAMRKQEIIKITEQLIEAINNGDFEAYTKICDPGLTSFEPEALGNLVEGMDFHKFYFENLLSKNSKPIHTTILNPHVHVIGEDAACIAYIRLTQYIDGQGRPRTSQSEETRVWHRRDGKWLNVHYHCSGAPAAPLQ [CAMK2G]	49.6 °C	48.9 °C	-0.382	-0.442	-0.0382	0.162
MATTGTPTADRGDAAATDDPAARFQVQKHSWDGLRSIIHGSRKYSGLIVNKAPHDFQFVQKTDESGPHSHRLYYLGMPYGSRENSLLYSEIPKKVRKEALLLLSWKQMLDHFQATPHHGVYSREEELLRERKRLGVFGITSYDFHSESGLFLFQASNSLFHCRDGGKNGFMVSPMKPLEIKTQCSGPRMDPKICPADPAFFSFINNSDLWVANIETGEERRLTFCHQGLSNVLDDPKSAGVATFVIQEEFDRFTGYWWCPTASWEGSEGLKTLRILYEEVDESEVEVIHVPSPALEERKTDSYRYPRTGSKNPKIALKLAEFQTDSQGKIVSTQEKELVQPFSSLFPKVEYIARAGWTRDGKYAWAMFLDRPQQWLQLVLLPPALFIPSTENEEQRLASARAVPRNVQPYVVYEEVTNVWINVHDIFYPFPQSEGEDELCFLRANECKTGFCHLYKVTAVLKSQGYDWSEPFSPGEDEFKCPIKEEIALTSGEWEVLARHGSKIWVNEETKLVYFQGTKDTPLEHHLYVVSYEAAGEIVRLTTPGFSHSCSMSQNFDMFVSHYSSVSTPPCVHVYKLSGPDDDPLHKQPRFWASMMEAASCPPDYVPPEIFHFHTRSDVRLYGMIYKPHALQPGKKHPTVLFVYGGPQVQLVNNSFKGIKYLRLNTLASLGYAVVVIDGRGSCQRGLRFEGALKNQMGQVEIEDQVEGLQFVAEKYGFIDLSRVAIHGWSYGGFLSLMGLIHKPQVFKVAIAGAPVTVWMAYDTGYTERYMDVPENNQHGYEAGSVALHVEKLPNEPNRLLILHGFLDENVHFFHTNFLVSQLIRAGKPYQLQIYPNERHSIRCPESGEHYEVTLLHFLQEYL [DPP9]	51.3 °C	51.1 °C	-0.0578	-0.344	-0.63	-0.171
